3 molecules from article PMC2821871 (Biochemistry, 2010) can be followed below.

No end group written: not given here. *: point of attachment. Biotin = O=C1N[C@H]2[C@H](CS[C@H]2CCCCC(=O)*)N1

For experiment [1], the target named is CR16-18 of LRP (P. pastoris) (human, UniProt Q07954 2731-2857). Nature of the experiment: SPR.
Another experiment concerns the target T1, CR17 of LRP (human, UniProt Q07954 2770-2817).
T1 chain (looked up): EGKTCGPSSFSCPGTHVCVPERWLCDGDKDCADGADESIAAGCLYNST

CR16-18 of LRP (P. pastoris), sequence (Q07954 2731-2857): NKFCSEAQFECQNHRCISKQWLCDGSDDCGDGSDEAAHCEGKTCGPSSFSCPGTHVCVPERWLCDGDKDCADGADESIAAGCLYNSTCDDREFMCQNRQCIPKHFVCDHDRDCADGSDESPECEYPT

B1: biotinylated ApoE(141-155)^2 peptide (peptide, UniProt P02649 159-173, looked up)
peptide: Biotin-LRKLRKRLLRDADDLLRKLRKRLLRDADDL
As for B1, the Kd in experiment [1] is approximately 0.0002 mM.

B2: Ub-ApoE(130-140) (peptide, UniProt P02649 148-158, looked up)
chain: TEELRVRLASH
In the case of B2, the dissociation constant Kd in the experiment with CR17 of LRP is more than 5 mM.

B3: Ub-ApoE(130-149)(K143/146A) (peptide, UniProt P02649 148-167, looked up)
chain: TEELRVRLASHLRALRARLL
As for B3, in the experiment with CR17 of LRP, the “KD (Global)” value was determined as 3.84 ± 0.801 mM, the “KD (Largest)” value came out at 2.76 ± 0.361 mM, the “KD (Sum)” value was determined as 3.78 ± 0.375 mM and the Kd is 3.46 mM.
